{"source": "patent US20090022739A1", "about": "“MODULATING THE KV1.1 VOLTAGE-GATED POTASSIUM CHANNEL IN T-CELLS FOR REGULATING THE […] AND SECRETION OF TUMOR NECROSIS FACTOR ALPHA (tnf-ALPHA) AND TREATING HUMAN DISEASE OR INJURIES MEDIATED BY […] HIGH OR LOW LEVELS OF TNF-ALPHA” (priority 2005, published 2009)", "key": {"[1]": {"tested_on": "human T-cells", "conditions": "data not shown"}, "[2]": {"biological_target": "Kv1.1 (Homo sapiens, UniProt Q09470)", "sequence (Q09470 whole entry)": "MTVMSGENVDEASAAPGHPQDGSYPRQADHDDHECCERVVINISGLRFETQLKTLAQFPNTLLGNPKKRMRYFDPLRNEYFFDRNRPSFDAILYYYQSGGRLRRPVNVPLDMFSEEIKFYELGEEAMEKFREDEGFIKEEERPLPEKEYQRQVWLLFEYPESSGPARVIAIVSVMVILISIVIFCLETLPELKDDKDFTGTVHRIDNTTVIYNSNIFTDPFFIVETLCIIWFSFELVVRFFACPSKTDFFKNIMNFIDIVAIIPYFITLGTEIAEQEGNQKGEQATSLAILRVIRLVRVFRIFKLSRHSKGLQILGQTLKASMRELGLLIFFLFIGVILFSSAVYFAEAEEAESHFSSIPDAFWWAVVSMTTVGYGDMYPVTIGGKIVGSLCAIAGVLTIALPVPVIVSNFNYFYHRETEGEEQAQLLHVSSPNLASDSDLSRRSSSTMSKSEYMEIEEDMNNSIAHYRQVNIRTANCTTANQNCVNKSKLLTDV", "conditions": "cited from earlier work"}, "[3]": {"tested_on": "TNF-α mRNA", "test": "RT-PCR for TNF-α mRNA in normal human T-cells", "type": "cell-based", "conditions": "100 nM DTX-K for 24 hr; normalized to S14; FIG. 3A", "description": "RT-PCR for TNF-α and Kv1.1: Total RNA was prepared according to Tri-Reagent protocol (MRC, Cincinnati, Ohio). First-strand cDNA was synthesized by Reverse Transcription System (Promega, Madison, Wis.). RT-PCR was conducted in a 50 μl reaction mixture containing 50 ng cDNA, 5 μl of X10 Optibuffer (Bioline, London, UK), 3 μl of 50 mM MgCl2, 2.5 μl of 10 mM dNTP mix (Promega), 4U of Bio-X-act DNA Polymerase (Bioline). For TNF-α/S14 parallel amplification, 2 μl of each TNF-α primer (10 pmol/μl) and 0.25 μl of each S14 primer (10 pmol/μl) were used. For Kv1.1/S14 parallel amplification, 5 μl of each Kv1.1 primer (100 pmol/μl) and 2.5 μl of each S14 primer (10 pmol/μl) were used. […]; Conditions for TNF-α PCR were: 94° C. for 1 minute, 63° C. for 40 seconds and 72° C. for 40 seconds (29 cycles). Conditions for Kv1.1 PCR were: 94° C. for 3 minutes (one cycle); 94° C. for 1 minute, 60/57/54/51/48° C. for 2 minutes and 72° C. for 3 minutes (three cycles each); 94° C. for 1 minute, 50° C. for 2 minutes and 72° C. for 3 minutes (25 cycles). […]\nThe question of whether selective block of Kv1.1 subunit containing channels in T-cells elevates not only the levels of the TNF-α protein, but also TNF-α mRNA was studied next. […] Bars at the bottom represent fold increase TNF-α mRNA calculated following densitometric analysis and normalization of the corresponding RT-PCR bands of TNF-α/S14. […]"}}, "data": [{"substance": "Dendrotoxin-K (AAKYCKLPLRIGPCKRKIPSFYYKWKAKQCLPFDYSGCGGNANRFKTIEECRRTCVG) [DTX-K]", "values": [{"measurement": "effect on cell survival or proliferation", "setting": "[1]", "value": "no significant effect"}, {"measurement": "active concentration, Kv1.1 channel block", "setting": "[2]", "value": "picomolar concentrations"}, {"measurement": "TNFα mRNA levels", "setting": "[3]", "value": "augmented"}]}]}
